Assay results published in patent publication US20050084449A1.

How the values were obtained:
[1] = biological target: TIM-1 antigen, cell membrane-bound (on ACHN, CAKI-2, CAKI-1 renal cancer cells and polarized/activated human CD4+ T cells) (human) (UniProt Q96D42); assay: FACS on activated T cells, Day 1, +MMPI
[2] = biological target: TIM-1 antigen, cell membrane-bound (on ACHN, CAKI-2, CAKI-1 renal cancer cells and polarized/activated human CD4+ T cells) (human) (UniProt Q96D42); assay: FACS on activated T cells, Day 0, +MMPI
[3] = biological target: TIM-1 antigen, cell membrane-bound (on ACHN, CAKI-2, CAKI-1 renal cancer cells and polarized/activated human CD4+ T cells) (human) (UniProt Q96D42); assay: FACS on activated T cells, Day 2, +MMPI
[4] = biological target: TIM-1 antigen, cell membrane-bound (on ACHN, CAKI-2, CAKI-1 renal cancer cells and polarized/activated human CD4+ T cells) (human) (UniProt Q96D42); assay: FACS on activated T cells, Day 1, -MMPI
[5] = biological target: TIM-1 antigen, cell membrane-bound (on ACHN, CAKI-2, CAKI-1 renal cancer cells and polarized/activated human CD4+ T cells) (human) (UniProt Q96D42); assay: FACS on activated T cells, Day 0, -MMPI
[6] = biological target: TIM-1 antigen, cell membrane-bound (on ACHN, CAKI-2, CAKI-1 renal cancer cells and polarized/activated human CD4+ T cells) (human) (UniProt Q96D42); assay: FACS on activated T cells, Day 4, +MMPI
[7] = biological target: TIM-1 antigen, cell membrane-bound (on ACHN, CAKI-2, CAKI-1 renal cancer cells and polarized/activated human CD4+ T cells) (human) (UniProt Q96D42); assay: FACS on activated T cells, Day 5, -MMPI
[8] = biological target: TIM-1 antigen, cell membrane-bound (on ACHN, CAKI-2, CAKI-1 renal cancer cells and polarized/activated human CD4+ T cells) (human) (UniProt Q96D42); assay: FACS on activated T cells, Day 2, -MMPI
[9] = biological target: TIM-1 antigen, cell membrane-bound (on ACHN, CAKI-2, CAKI-1 renal cancer cells and polarized/activated human CD4+ T cells) (human) (UniProt Q96D42); assay: FACS on activated T cells, Day 5, +MMPI
[10] = biological target: TIM-1 antigen, cell membrane-bound (on ACHN, CAKI-2, CAKI-1 renal cancer cells and polarized/activated human CD4+ T cells) (human) (UniProt Q96D42); assay: FACS on activated T cells, Day 4, -MMPI

Chain of TIM-1 antigen, cell membrane-bound (on ACHN, CAKI-2, CAKI-1 renal cancer cells and polarized/activated human CD4+ T cells) (human) (Q96D42 21-364): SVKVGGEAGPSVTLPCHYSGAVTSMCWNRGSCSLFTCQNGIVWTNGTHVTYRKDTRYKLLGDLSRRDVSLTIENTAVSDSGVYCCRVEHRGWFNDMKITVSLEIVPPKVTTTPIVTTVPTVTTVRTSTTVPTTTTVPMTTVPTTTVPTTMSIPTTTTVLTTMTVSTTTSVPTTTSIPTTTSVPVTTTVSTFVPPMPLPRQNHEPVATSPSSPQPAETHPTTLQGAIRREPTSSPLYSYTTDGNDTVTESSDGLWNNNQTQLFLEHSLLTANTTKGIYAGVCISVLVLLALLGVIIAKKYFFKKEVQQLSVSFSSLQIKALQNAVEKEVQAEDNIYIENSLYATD

- Percent of activated T cells that express TIM-1 (percent stained) [1]: 2%
- Percent of activated T cells that express TIM-1 (percent stained) [2]: 1%
- Percent of activated T cells that express TIM-1 (percent stained) [3]: 6%
- Percent of activated T cells that express TIM-1 (percent stained) [4]: 3%
- Percent of activated T cells that express TIM-1 (percent stained) [5]: 1%
- Percent of activated T cells that express TIM-1 (percent stained) [6]: 2%
- Percent of activated T cells that express TIM-1 (percent stained) [7]: 1%
- Percent of activated T cells that express TIM-1 (percent stained) [8]: 3%
- Percent of activated T cells that express TIM-1 (percent stained) [9]: 2%
- Percent of activated T cells that express TIM-1 (percent stained) [10]: 1%
Substance: isotype matched control mAb PK16.3 (antibody)
